Legend:
[1] = molecular target: Skp1tr-F-box^Fbw7 complex (human) (UniProt P63208); assay: SPR, complex immobilised, Cul1 NTD injected
[2] = molecular target: Skp1tr-F-box^Fbw7 complex (human) (UniProt P63208); assay: SPR
Target sequence in this assay (P63208 other isoform, or with tags, fused parts or gaps, chain 1 of 2): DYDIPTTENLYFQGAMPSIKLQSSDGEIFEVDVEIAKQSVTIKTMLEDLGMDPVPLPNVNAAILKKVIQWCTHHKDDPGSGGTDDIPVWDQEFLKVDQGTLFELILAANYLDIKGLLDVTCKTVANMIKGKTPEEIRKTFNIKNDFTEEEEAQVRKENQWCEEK
Target sequence in this assay (Q969H0 other isoform, or with tags, fused parts or gaps, chain 2 of 2, further chain): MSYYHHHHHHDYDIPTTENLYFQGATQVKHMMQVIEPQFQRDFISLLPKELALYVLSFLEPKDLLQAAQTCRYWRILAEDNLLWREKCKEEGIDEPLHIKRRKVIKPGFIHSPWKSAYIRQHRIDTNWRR

[3] = molecular target: Skp1tr-F-box^Fbw7 complex (human) (UniProt P63208); assay: ELISA
Target sequence in this assay (P63208 other isoform, or with tags, fused parts or gaps, chain 1 of 2): as the sequence (P63208 other isoform, or with tags, fused parts or gaps, chain 1 of 2) above
Target sequence in this assay (Q969H0 other isoform, or with tags, fused parts or gaps, chain 2 of 2, further chain): as the sequence (Q969H0 other isoform, or with tags, fused parts or gaps, chain 2 of 2, further chain) above

fold weaker than with Skp1-F-box^Fbw7 [1]: 1000 fold
Kd [2]: 3.6 nM
EC50 [3]: 11 nM
Substance: Cul1 N-terminal domain (NTD) (from UniProt Q13616 1-410)

Reference: patent publication US20200299342A1
